Laboratory results reported in publication PMC12057046, “Elucidation of short linear motif-based interactions of the MIT and rhodanese domains of the ubiquitin-specific protease 8” (Biology Direct, 2025).
Ends that are not written are not given here. * marks the point of attachment. FITC = O=C1OC2(c3ccc(O)cc3Oc3cc(O)ccc32)c2ccc(NC(=S)*)cc21

Key:
Conditions in all cases: both partners purified
[1] = target: T1, GST-tagged USP8 MIT domain (1-142) (human, UniProt P40818 1-142); test: peptide or protein array; SPOT array, cellulose-bound peptides; GST-tagged MIT domain 100 µM in 5% skim milk in TBST overnight at 4 °C; detected with HRP-conjugated anti-GST antibody
T1 construct: Ubiquitin carboxyl-terminal hydrolase 8 (USP8), human, MIT domain, residues 1-142; pETM33 vector, synthesized by GenScript; source: E. coli BL21-Gold (DE3), purified (glutathione sepharose, eluted with reduced glutathione)
T1 sequence (looked up): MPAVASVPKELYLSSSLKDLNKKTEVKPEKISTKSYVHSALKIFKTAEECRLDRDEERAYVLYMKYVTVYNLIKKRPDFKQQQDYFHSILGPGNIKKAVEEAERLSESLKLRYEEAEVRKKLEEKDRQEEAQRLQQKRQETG

[2] = target: T2, USP8 rhodanese domain (174-317), GST tag cleaved (human, UniProt P40818 174-317); test: fluorescence polarisation; competitive: 1.5 µM protein preincubated with 10 nM FITC-labeled peptide, displaced by increasing concentration of unlabeled peptide; 50 mM sodium phosphate pH 7.4, 1 mM DTT
T2 construct: Ubiquitin carboxyl-terminal hydrolase 8 (USP8), human, rhodanese domain, residues 174-317; also called Rhod domain; source: E. coli BL21-Gold (DE3), purified (glutathione sepharose, GST cleaved on beads with HRV 3C protease)
T2 sequence (looked up): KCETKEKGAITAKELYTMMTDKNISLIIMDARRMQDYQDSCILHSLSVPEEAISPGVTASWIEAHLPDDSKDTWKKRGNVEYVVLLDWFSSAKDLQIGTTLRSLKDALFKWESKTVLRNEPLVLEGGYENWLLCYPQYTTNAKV

[3] = target: T3, GST-tagged USP8 rhodanese domain (174-317) (human, UniProt P40818 174-317); test: peptide or protein array; SPOT array, cellulose-bound peptides; GST-tagged Rhodanese domain 150 µM in 5% skim milk in TBST overnight at 4 °C; detected with HRP-conjugated anti-GST antibody
T3 construct: Ubiquitin carboxyl-terminal hydrolase 8 (USP8), human, rhodanese domain, residues 174-317; pETM33 vector, synthesized by GenScript; also called Rhod domain; source: E. coli BL21-Gold (DE3), purified (glutathione sepharose, eluted with reduced glutathione)
T3 sequence (looked up): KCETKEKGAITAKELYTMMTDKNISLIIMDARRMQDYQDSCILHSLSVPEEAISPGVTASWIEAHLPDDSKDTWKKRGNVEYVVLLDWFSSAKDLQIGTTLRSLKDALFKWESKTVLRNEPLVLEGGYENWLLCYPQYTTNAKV

[4] = target: T4, USP8 Rhod (174–317) (human, UniProt P40818 174-317); test: fluorescence polarisation; direct binding: constant concentration of FITC-labeled peptide, increasing concentration of the protein; 50 mM sodium phosphate buffer pH 7.4, 1 mM DTT; KD from a fit to a quadratic equation
T4 construct: Ubiquitin carboxyl-terminal hydrolase 8 (USP8), human, UniProt P40818, rhodanese domain, residues 174-317; Construct in the pETM33 vector, synthesized by GenScript; also called USP8_Rhodanese; USP8 rhodanese domain; source: E. coli BL21-Gold (DE3), purified (GSH sepharose)
T4 sequence (looked up): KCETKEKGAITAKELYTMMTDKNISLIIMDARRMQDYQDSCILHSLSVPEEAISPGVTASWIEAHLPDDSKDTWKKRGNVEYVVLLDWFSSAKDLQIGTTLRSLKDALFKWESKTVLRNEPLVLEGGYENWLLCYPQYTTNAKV

B1: DNAJB6 118-130 peptide, cellulose-bound (SPOT array) (peptide, UniProt O75190 118-130, looked up)
peptide: PFEDFFGNRRGPR
notes: DnaJ homolog subfamily B member 6 (DNAJB6), residues 118-130; holds a partial DFx{2,3}R motif; also called DnaJ homolog subfamily B member 6; source: alanine scan: INTAVIS
B1: binds [1].

B2: Cadherin-1 863-877 peptide, cellulose-bound (SPOT array) (peptide, UniProt P12830 863-877, looked up)
peptide: NEWGNRFKKLADMYG
notes: cadherin-1 (CDH1), residues 863-877; holds an RFxxL motif; also called CDH1_(863 − 877); source: alanine scan: INTAVIS
B2: binds [1].

B3: KIAA1614 568-583 peptide, synthetic (peptide)
peptide: GMERVLGGLSSPLRLL
notes: also called positive control; source: JPT Peptide Technologies; free, unlabelled for fluorescence polarisation (GeneCust, >95% purity)
B3 showed a Kd [2] of 10 ± 2 µM.

B4: Keratin-85 41-55 peptide, cellulose-bound (SPOT array) (peptide, UniProt P78386 41-55, looked up)
peptide: GVSCYRGLTGFGSRS
notes: Keratin-85 (KRT85), residues 41-55; holds an Rx[LI]xG motif; also called KRT85_(41 − 55); source: bought: JPT Peptide Technologies, cellulose membrane
B4: binds [3].

B5: DBP 116-131 peptide, cellulose-bound (SPOT array) (peptide)
peptide: YVDLDAFLLEHGLPPS
notes: also called positive control; source: array of predicted peptides: JPT Peptide Technologies
B5: binds [1].

B6: FITC-TET3 1705-1720 peptide (Methylcytosine dioxygenase TET3) (peptide)
peptide: {FITC}-GLALWEAKMKQLAERA
notes: also called probe peptide; source: synthetic peptide, bought: GeneCust (France), > 95% purity
With B6 the Kd [4] was 0.7 µM.

B7: TET3 1705-1720 peptide, unlabelled, synthetic (peptide)
peptide: GLALWEAKMKQLAERA
notes: source: synthetic peptide (GeneCust, >95% purity)
B7 showed a Kd [2] of 33 ± 9 µM.

B8: Tumour protein 63 608-622 peptide, cellulose-bound (SPOT array) (peptide, UniProt Q9H3D4 608-622, looked up)
peptide: HEFSSPSHLLRTPSS
notes: holds an SSPxxL[LM] motif; source: alanine scan: INTAVIS
B8: binds [3].
